Source: US12674174B2, “Protoporphyrinogen oxidase (PPO) resistance plant” (PLANTARC BIO LTD., priority 2022, dated 2026)
Entries after “also recorded” stand apart in the source; their conditions may differ.

B1: SEQ ID NO: 103: Nicotiana tabacum protoporphyrinogen oxidase, mitochondrial, NP_001312887.1 (protein, listed as Nicotiana tabacum)
chain: MAPSAGEDKHSSAKRVAVIGAGVSGLAAAYKLKIHGLNVTVFEAEGKAGGKLRSVSQDGLIWDEGANTMTESEGDVTFLIDSLGLREKQQFPLSQNKRYIARNGTPVLLPSNPIDLIKSNFLSTGSKLQMLLEPILWKNKKLSQVSDSHESVSGFFQRHFGKEVVDYLIDPFVAGTCGGDPDSLSMHHSFPELWNLEKRFGSVILGAIRSKLSPKNEKKQGPPKTSANKKRQRGSFSFLGGMQTLTDAICKDLREDELRLNSRVLELSCSCTEDSAIDSWSIISASPHKRQSEEESFDAVIMTAPLCDVKSMKIAKRGNPFLLNFIPEVDYVPLSVVITTFKRENVKYPLEGFGVLVPSKEQQHGLKTLGTLFSSMMFPDRAPNNVYLYTTFVGGSRNRELAKASRTELKEIVTSDLKQLLGAEGEPTYVNHLYWSKAFPLYGHNYDSVLDAIDKMEKNLPGLFYAGNHRGGLSVGKALSSGCNAADLVISYLESVSTDSKRHC
B2: SEQ ID NO: 94: PPO from Penicillium sp. Protein. (protein, listed as Penicillium sp.)
chain: MRLLTASKGLRSPQKPLISAIRCQHRSYNAAVIGGGITGLTAAWQLIQDRECSSVTIYEKSRRLGGWLQSETIPVEGGEVVFEYGPRTLRSAMPASLPLLYLVSNLGLFDELITTSKRSPAALNRYIYYPDHLVRLPTPDPDLSLMENARNIFRTITTEPLFEGFITGLLSEPNKPARPQEEWAIDESLAEFITRRFNRKIADNLVSAVMHGIYADNIDEMSAQAIMGPLRNLEDGGILFGLLIKSIMGKKTRSMDDFLAVDAVYKTPETMQRLDEINRVVKTASTFTFKRGTQQLVEGLTRALRASEKVRLVMDADILALDPPANRGHKLKIYTGIRGEESFDHVISAISAPAMARILDPQGQVKIDCDPEDEYRALWNSKKARHPKPNIGTVSGLHFFRHATTVMVVNLYYKTPNLLPVDGFGYLIPRSIPYEQNPECGLGVIFASASSSGESPVAPYPKVSQDSAPGTKITIMFGGHYWDGWKKQDYPDHKTAVRMAKDMLERHLGITEPPALVRTRLQENAIPKYKPPHIHQIYALSRWAKEEYHNRLVLVGNSFSGVGVGDCVRQGIMAATHGVGRHKLTATPRLESKDWCPWKEYNYQHWDLKGGVPTAPVRLFESDI
B3: SEQ ID NO: 114: PPO from Trichoderma sp. fused to cTP. Chimeric Protein; cloned from SEQ ID NO: 96 (protein, listed as Trichoderma sp.)
chain: MELSLLRPTTQSLLPSFSKPNLRLNVYKPLRLRCSVAGGMSLKRADGAAMAFLRLSSAVCGRRRIPAGGLPADANVAVLGGGLTGLTTAYYLAKWLPPTAKITLLEASDRLGGWIKTDRVPVKVGGVEGVVSFERGPRSLSSLNKSTWRFDDLVLWDLALDLGLRVVSPPDKPRYIYYPDHLVPLPPHTSLAAFASEPLVLESLWAGFGYVLRRLFSRKAGVPVQDLSIADWIQHITGSRAVAENLASAMVHGIYGGDIYTLSARSVLDRFYWVHYLPALGPDVRHMALSEQVFMEAMGQDPLIRKLAQQPRGALLNFGEAGMETLPIALADALNGQANVEVKLGAKVTGLEYESETEMMKITTTGQDDSPAEKYHKVISTLPSQHLARITDTLPSLASSHAVSIMTVNIWYPQTNLKPPGFGYLIPLSVPAEQNPERALGVFFDSDVGVRGPDEPAGTKLFVLMGGHYYDKKQPGASVRVPSEEEAIEQAKRVLERHLGIPQSTPCFAMARLASECIPQYVCGHQDTMAAADEDLRDSFDGRLAVAGGSYTKIGAMGALRNGYDIANTVVREDWLTTGLEQLEFPTQFCGVPTERIPVRRFSRR
B4: SEQ ID NO: 115: PPO from Rhodotorula sp. fused to cTP. Chimeric Protein; cloned from SEQ ID NO: 97 (protein, listed as Rhodotorula sp.)
chain: MELSLLRPTTQSLLPSFSKPNLRLNVYKPLRLRCSVAGGMQSYSGNALARQSVPIKPIRRRTPRLNLIRSLPSPRFFVTSPSSSQRHDHPYHTLAILGGGLSGLSTAHYFLRTLSPSLRDQTRIVVLEKEERVGGWCRAVRIQNGRRLGENEKPEGTEDLLVFETGPRSVRPVGLLGWLTIEMAHELGLTPSIVTVPKSAPSARNRFIYTGHRSSTSISPILKAALPTIPSALLEPFRPRSPLHDDPSGLADESVDSFIARRFGRRLADELASAGIHGIYAGDTRRLSVRAVLPALWELEKEWGSVVIGALFGSFARRRGWKKNSPWRMRQQAETEEMERVKERIRAKGGEALVEDMEKASVWGVKGGLQVVTETLREKLEAEGVEFWMGEKGKVEHVEKVDGGWQIRTSSGALDASQLVTTIPQLLPSSLAPPALPATTVSVVNLAFEKPAPGSPPLHPAGFGYLIPRTVPSSLNPHRALGVIFDSDVMPDVDSSSSLGLTKLSLLLGGSYWLDRHPPPQPSHDDLVNAALETLRLHFPDRPIPKPVHAFTHTHVNCIPQVPPGFMPSFRAFGDRLREAGNVAVVGGGFAAVGVNGCVKAAWEVGSAMAQAVNAQAGGKEGEGEEKVREAVARTVKTGTEMWEL
B5: SEQ ID NO: 112: PPO from Penicillium sp. fused to cTP. Chimeric Protein; cloned from SEQ ID NO: 94 (protein, listed as Penicillium sp.)
chain: MELSLLRPTTQSLLPSFSKPNLRLNVYKPLRLRCSVAGGMRLLTASKGLRSPQKPLISAIRCQHRSYNAAVIGGGITGLTAAWQLIQDRECSSVTIYEKSRRLGGWLQSETIPVEGGEVVFEYGPRTLRSAMPASLPLLYLVSNLGLFDELITTSKRSPAALNRYIYYPDHLVRLPTPDPDLSLMENARNIFRTITTEPLFEGFITGLLSEPNKPARPQEEWAIDESLAEFITRRFNRKIADNLVSAVMHGIYADNIDEMSAQAIMGPLRNLEDGGILFGLLIKSIMGKKTRSMDDFLAVDAVYKTPETMQRLDEINRVVKTASTFTFKRGTQQLVEGLTRALRASEKVRLVMDADILALDPPANRGHKLKIYTGIRGEESFDHVISAISAPAMARILDPQGQVKIDCDPEDEYRALWNSKKARHPKPNIGTVSGLHFFRHATTVMVVNLYYKTPNLLPVDGFGYLIPRSIPYEQNPECGLGVIFASASSSGESPVAPYPKVSQDSAPGTKITIMFGGHYWDGWKKQDYPDHKTAVRMAKDMLERHLGITEPPALVRTRLQENAIPKYKPPHIHQIYALSRWAKEEYHNRLVLVGNSFSGVGVGDCVRQGIMAATHGVGRHKLTATPRLESKDWCPWKEYNYQHWDLKGGVPTAPVRLFESDI
B6: SEQ ID NO: 116: PPO from Hesseltinella sp. fused to cTP. Chimeric Protein; cloned from SEQ ID NO: 98 (protein, listed as Hesseltinella sp.)
chain: MELSLLRPTTQSLLPSFSKPNLRLNVYKPLRLRCSVAGGMPRSIVVLGGGISGLSAAYYLSRLVPQAHIRLIESNKRAGGFIKTQQVNDHLIFEAGPRTLRPHGTSGTVLLDMIKDLDLSPLLVNIPKSHPSAQHRYIEYHGQINQLPSGLADMLLHSPPIMDSVITAGMREPFLARASTTKDESLYNFMERRFNEHTALNLMGAMAHGIYAGDAKQLSVHSTFPILAACEQEYGSVVLGMLSGKLSVESPRERQLADACRAKDPEWFKQMQQSSVLGFLPGLGALPSRLTQFLSSQPNVSMQLGETVSRLDGQSSHQIEITTSQGQIYHADHIVSTLPSHALARISMPTTTSLPHLTHNPSADVALVNLAYEKCKVKPGLDGFGFLTPHADTMPPSQFPGLLGMIFDSNSLGVQDQDSNMVRFTAMIGGADWNLAFGSLHDNDAISSKALTMATAALSKYLEIHESPAHYHCRILRQCIPQYLVGHRQRMNELHAALQHSFGHTMSVTGASYLGVSVPDCIKHSRMLIEDLVDTGALGSKQAVITGLEKVTLPMYYKL

Test system: Arabidopsis plants
Conditions: for High concentration herbicide tolerance: Table 1; for rank among fungal isolated-PPO genes for growth in the presence of Strike, Star, Goal and Aurora: Strike 2.5, Star 1.25, Goal 1.15, Aurora 1.0 kg/hectare; for herbicides against which tolerance was shown: FIG. 3C, Strike, Star, Goal, Aurora tested

Molecule | High concentration herbicide tolerance (yes/no) | rank among fungal isolated-PPO genes for growth in the presence of Strike, Star, Goal and Aurora | herbicides against which tolerance was shown | further results
B1 | no |  |  | 
B2 | yes |  |  | Herbicide tolerance (Table 2, yes/no, FIG. 6C legend: Star 1.25 kg/hectare): yes
B3 |  | top 3 |  | 
B4 |  | top 3; also recorded: top 2 |  | 
B5 |  |  | tolerances against Goal and Star herbicides only | 
B6 |  |  | tolerances against Goal and Star herbicides only | 
